# Test results: EP3381935A1 (Tigo GmbH, dated 2018)
# T1: recombinant hIFN-γ receptor (the extracellular part of the IFNGR1) (human, UniProt P15260 18-245)
# T1 construct: extracellular domain; In solution for ITC; also called soluble (extracellular) part of the hIFN-γ receptor IFNGR1; interferon-gamma receptor
# T1 sequence (looked up): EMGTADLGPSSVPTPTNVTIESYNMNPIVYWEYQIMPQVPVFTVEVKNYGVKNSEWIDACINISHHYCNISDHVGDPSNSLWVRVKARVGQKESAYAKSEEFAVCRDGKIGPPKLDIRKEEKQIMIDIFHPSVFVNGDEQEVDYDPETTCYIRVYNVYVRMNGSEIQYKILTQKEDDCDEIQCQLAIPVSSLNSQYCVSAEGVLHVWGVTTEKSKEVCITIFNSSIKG
# T2: hIFN-γ receptor on human amniotic WISH cells (human, UniProt P15260 18-489)
# T2 sequence (looked up): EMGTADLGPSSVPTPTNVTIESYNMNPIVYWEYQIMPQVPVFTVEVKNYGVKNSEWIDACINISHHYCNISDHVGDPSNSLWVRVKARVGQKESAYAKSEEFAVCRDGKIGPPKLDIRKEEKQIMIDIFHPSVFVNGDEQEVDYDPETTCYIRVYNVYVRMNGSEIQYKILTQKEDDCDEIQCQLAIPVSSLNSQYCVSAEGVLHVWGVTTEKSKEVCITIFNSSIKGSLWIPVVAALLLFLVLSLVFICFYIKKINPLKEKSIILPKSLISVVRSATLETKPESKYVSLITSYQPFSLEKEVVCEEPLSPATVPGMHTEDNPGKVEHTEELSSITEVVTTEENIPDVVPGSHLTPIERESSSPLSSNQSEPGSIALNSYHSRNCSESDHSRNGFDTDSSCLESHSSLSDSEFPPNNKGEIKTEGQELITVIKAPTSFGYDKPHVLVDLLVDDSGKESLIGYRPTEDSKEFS
# Columns and labels:
# [1] = target: T1, recombinant hIFN-γ receptor (the …); test: ITC, IFNGR1 in the cell titrated with ligand, 20°C
# [2] = target: T2, hIFN-γ receptor on human amniotic WISH …; test: cell-based or functional assay
Kd [1] [nM],Competitive ability % [2] [%],Binder
18.9,25,"K88Q (138 aa) (ligand, human, UniProt P01579 24-161, looked up, range 1-138; also called Control 3: K88Q(138 aa); Control 2: K88Q) QDPYVKEAENLKKYFNAGHSDVADNGTLFLGILKNWKEESDRKIMQSQIVSFYFKLFKNFKDDQSIQKSVETIKEDMNVKFFNSNKKQRDDFEKLTNYSVTDLNVQRKAIHELIQVMAELSPAAKTGKRKRSQMLFRG"
136,–,"reference hIFN-γ (143 aa) (ligand, human, UniProt P01579 24-161, looked up, mature; also called standard hIFN-γ; wild type hIFN-γ) QDPYVKEAENLKKYFNAGHSDVADNGTLFLGILKNWKEESDRKIMQSQIVSFYFKLFKNFKDDQSIQKSVETIKEDMNVKFFNSNKKKRDDFEKLTNYSVTDLNVQRKAIHELIQVMAELSPAAKTGKRKRSQMLFRG"
–,30,anti-gamma mutant protein K88Q_D41N (138 aa) (ligand) QDPYVKEAENLKKYFNAGHSDVADNGTLFLGILKNWKEESNRKIMQSQIVSFYFKLFKNFKDDQSIQKSVETIKEDMNVKFFNSNKKQRDDFEKLTNYSVTDLNVQRKAIHELIQVMAELSPAAKTGKRKRSQMLFRG
28.2,35,"anti-gamma mutant protein K88Q_T27Y (138 aa) (ligand, Expressed in E. coli as a HIS-SUMO fusion and the tag was cleaved off; Positions count on the mature 143 aa hIFN-γ) QDPYVKEAENLKKYFNAGHSDVADNGYLFLGILKNWKEESDRKIMQSQIVSFYFKLFKNFKDDQSIQKSVETIKEDMNVKFFNSNKKQRDDFEKLTNYSVTDLNVQRKAIHELIQVMAELSPAAKTGKRKRSQMLFRG"
